These are literature values, as cited in article PMC3951123.

What all share (assay): SPR
For orientation: Surface plasmon resonance follows binding to a sensor surface in real time, without labels.

Data set [1] deals with Syk linker B peptide SykLB-YpY (Mus musculus) (UniProt P48025).
Data set [2] has as its target Syk linker B peptide SykLB-pYpY (Mus musculus) (UniProt P48025).
For data set [3], the target named is Syk linker B peptide SykLB-pYY (Mus musculus) (UniProt P48025).

What is called Kd is a measure of binding affinity in units of concentration. In the case of Vav1 SH2 (from UniProt P15498), the Kd in data set [1] was 71 µM; in data set [2] it was 7.4 µM; in data set [3], 14.6 µM.
